Experimental data: PMC5026484 (eLife, 2016)

B1: Rab8a, full length, loaded with GppNHp (natural protein, human, UniProt P61006 1-207, looked up)
chain: MAKTYDYLFKLLLIGDSGVGKTCVLFRFSEDAFNSTFISTIGIDFKIRTIELDGKRIKLQIWDTAGQERFRTITTAYYRGAMGIMLVYDITNEKSFDNIRNWIRNIEEHASADVEKMILGNKCDVNDKRQVSKERGEKLALDYGIKFMETSAKANINVENAFFTLARDIKAKMDKKLEGNSPQGSNQGVKITPDQQKRSSFFRCVLL
notes: Rab8a, human; called Rab8 in the results and Rab8aFl in the crystallisation methods; also called Rab8aFl; source: expressed and purified as described previously (Bleimling et al., 2009), loaded with GppNHp, gel filtration
B2: bMERB domain (Rab binding domain) of EHBP1 (domain or fragment)
chain: not shown
notes: EHBP1 1047-1231 (bMERB domain with CaaX box) is named for the prenylation and localisation experiments only; also called RBD of EHBP1
B3: bMERB domain (Rab binding domain) of Mical-cL, residues 534-683 (domain or fragment, human, UniProt O94851 1796-1945, looked up)
chain: KQEELKRLYKAQAIQRQLEEVEERQRASEIQGVRLEKALRGEADSGTQDEAQLLQEWFKLVLEKNKLMRYESELLIMAQELELEDHQSRLEQKLREKMLKEESQKDEKDLNEEQEVFTELMQVIEQRDKLVDSLEEQRIREKAEDQHFES
notes: Mical C-terminal like protein (Mical-cL), human, bMERB domain, residues 534-683; Limits are stated for the crystallised construct; also called Mical-cL_(534-683); RBD of Mical-cL
B4: bMERB domain (Rab binding domain) of Mical-3, residues 1841-1990 (domain or fragment, human, UniProt Q7RTP6 1841-1990, looked up)
chain: KQEELKRLHRAQIIQRQLQQVEERQRRLEERGVAVEKALRGEAGMGKKDDPKLMQEWFKLVQEKNAMVRYESELMIFARELELEDRQSRLQQELRERMAVEDHLKTEEELSEEKQILNEMLEVVEQRDSLVALLEEQRLREREEDKDLEA
notes: Mical-3, human, whole predicted bMERB domain, residues 1841-1990 (isoform 1); printed elsewhere as 1841-1992; Limits are stated for the crystallised selenomethionine construct; also called Mical-3_(1841-1990); RBD of Mical-3
B5: bMERB domain (Rab binding domain) of Mical-1, residues 918-1067 (domain or fragment, human, UniProt Q8TDZ2 918-1067, looked up)
chain: KEEEMKRFCKAQTIQRRLNEIEAALRELEAEGVKLELALRRQSSSPEQQKKLWVGQLLQLVDKKNSLVAEEAELMITVQELNLEEKQWQLDQELRGYMNREENLKTAADRQAEDQVLRKLVDLVNQRDALIRFQEERRLSELALGTGAQG
notes: Mical-1, human, bMERB domain, residues 918-1067 (isoform 1); Limits are stated for the crystallised construct; also called Mical-1_(918-1067); RBD of Mical-1

What was measured:
[1] = target: B4; experiment: SEC; analytical size exclusion chromatography with varying ratios of Rab8 and bMERB domain (1.2:1, 1.6:1, 2.2:1; effector 113 µM, Rab 130, 180 or 250 µM); stoichiometry from the peak of free excess Rab8; conditions: both partners purified
[2] = target: T1, bMERB domain (Rab binding domain) of EHBP1L1 (human, UniProt Q8N3D4 1340-1523); experiment: ITC; iTC200, 25°C; 400 µM Rab titrated into 20–40 µM bMERB domain in the cell; 20 mM Hepes pH 7.5, 50 mM NaCl, 2 mM MgCl2, 1 mM TCEP; conditions: both partners purified
T1 construct: EHBP1L1, human, bMERB domain; EHBP1L1 1340-1523 (bMERB domain with CaaX box) is named for the prenylation and localisation experiments only; also called RBD of EHBP1L1

[3] = target: B4; experiment: as above; conditions: both partners purified
[4] = target: B5; experiment: as above; conditions: both partners purified
[5] = target: B3; experiment: as above; conditions: both partners purified
[6] = target: T1, bMERB domain (Rab binding domain) of …; experiment: as above; conditions: both partners purified; remark: listed apart in the source
[7] = target: B4; experiment: as above; conditions: both partners purified; remark: listed apart in the source
[8] = target: B5; experiment: as above; conditions: both partners purified; remark: listed apart in the source
[9] = target: B2; experiment: as above; conditions: both partners purified
[10] = target: B1; experiment: as above; conditions: both partners purified
[11] = target: T2, Rab10, full length, loaded with GppNHp (human, UniProt P61026 1-200); experiment: as above; conditions: both partners purified
T2 construct: Rab10, human; Rab10Fl in the crystallisation methods; also called Rab10Fl; source: expressed and purified as described previously (Bleimling et al., 2009), loaded with GppNHp, gel filtration
T2 sequence (looked up): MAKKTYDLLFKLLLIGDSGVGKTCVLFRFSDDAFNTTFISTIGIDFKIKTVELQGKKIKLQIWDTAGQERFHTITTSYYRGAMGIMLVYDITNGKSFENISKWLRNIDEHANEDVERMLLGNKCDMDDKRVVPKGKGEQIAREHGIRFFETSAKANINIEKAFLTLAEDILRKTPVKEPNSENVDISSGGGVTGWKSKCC

[12] = target: T3, Rab15, loaded with GppNHp (UniProt P59190 1-212); experiment: as above; conditions: both partners purified
T3 construct: Rab15; source: expressed and purified as described previously (Bleimling et al., 2009), loaded with GppNHp, gel filtration
T3 sequence (looked up): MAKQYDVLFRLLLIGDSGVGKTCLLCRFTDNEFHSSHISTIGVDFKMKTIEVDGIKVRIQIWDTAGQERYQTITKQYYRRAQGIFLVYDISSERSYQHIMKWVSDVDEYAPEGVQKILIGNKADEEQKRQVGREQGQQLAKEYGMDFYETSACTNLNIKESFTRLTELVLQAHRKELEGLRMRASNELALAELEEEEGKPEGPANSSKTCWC

[13] = target: T4, Rab13, loaded with GppNHp (UniProt P51153 1-203); experiment: as above; conditions: both partners purified
T4 construct: Rab13; also called Rab13:GppNHp; source: expressed and purified as described previously (Bleimling et al., 2009), loaded with GppNHp, gel filtration
T4 sequence (looked up): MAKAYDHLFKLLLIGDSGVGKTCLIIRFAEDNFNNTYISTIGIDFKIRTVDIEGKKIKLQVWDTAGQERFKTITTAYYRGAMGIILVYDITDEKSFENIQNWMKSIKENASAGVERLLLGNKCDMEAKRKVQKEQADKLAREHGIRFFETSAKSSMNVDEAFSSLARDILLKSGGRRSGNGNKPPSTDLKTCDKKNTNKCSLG

[14] = target: T4, Rab13, loaded with GppNHp; experiment: as above; conditions: both partners purified; remark: listed apart in the source
[15] = target: B1; experiment: as above; conditions: both partners purified; remark: listed apart in the source
[16] = target: the molecule itself; experiment: SEC; analytical size exclusion chromatography of the bMERB domain alone (112.5 µM); apparent size from the retention
[17] = target: T2, Rab10, full length, loaded with GppNHp; experiment: SEC; analytical size exclusion chromatography, Superdex S75 10/300 GL; 130 µM Rab:GppNHp + 112.5 µM (113 µM) bMERB domain; 20 mM Hepes pH 7.5, 50 mM NaCl, 2 mM DTE, 2 mM MgCl2; conditions: both partners purified
[18] = target: B1; experiment: as above; conditions: both partners purified
Rab10 residues 1-175 = target: T5, Rab10 residues 1-175 (human, UniProt P61026 1-175); experiment: crystal structure; X-ray; sitting/hanging-drop vapour diffusion, 20°C; data from beamline X10SA, SLS; conditions: both partners purified
T5 construct: Rab10, human, residues 1-175; Used for the crystal of the 2:1 complex with Mical-1 918-1067; also called Rab10_(1-175); source: expressed and purified as described previously (Bleimling et al., 2009)
T5 sequence (looked up): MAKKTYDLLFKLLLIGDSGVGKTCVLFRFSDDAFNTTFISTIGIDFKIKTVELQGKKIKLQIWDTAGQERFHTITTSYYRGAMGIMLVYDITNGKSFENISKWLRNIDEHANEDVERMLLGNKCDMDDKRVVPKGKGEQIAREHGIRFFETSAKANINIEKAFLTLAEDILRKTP

T1 sequence (Q8N3D4 1340-1523): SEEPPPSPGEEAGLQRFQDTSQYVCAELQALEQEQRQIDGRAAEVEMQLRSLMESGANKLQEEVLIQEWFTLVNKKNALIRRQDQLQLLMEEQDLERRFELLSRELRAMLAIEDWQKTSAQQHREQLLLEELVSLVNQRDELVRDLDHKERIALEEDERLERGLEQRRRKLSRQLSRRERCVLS

Binder: B1
stoichiometry N [1]: 1
KD,1 (two-site fit) [2]: 159 nM
KD,1 (two-site fit) [3]: 27.9 nM
KD,1 (two-site fit) [4]: 55.5 nM
stoichiometry N [5]: 1
stoichiometry N [6]: 2
stoichiometry N [7]: 2
stoichiometry N [8]: 2
stoichiometry N [9]: 1

Binder: B2
Kd [10]: 397 nM

Binder: B3
Kd [11]: 790 nM
Kd [12]: 33 nM
Kd [13]: 94 nM
Kd [10]: 253 nM
Kd [14]: 93 nM
Kd [15]: 233 nM
stoichiometry N [16]: 2

Binder: B4
stoichiometry N [16]: 2
binding result [17]: binds
binding result [18]: binds

Binder: B5
binding result [17]: binds
binding result [18]: binds
binding result (Rab10 residues 1-175): binds
